How the values were obtained:
cryo-EM structure = biological target: the molecule itself; assay: cryo-EM structure
SEC = biological target: the molecule itself; assay: SEC

| Protein | stoichiometry N (cryo-EM structure) | stoichiometry N (SEC) |
| --- | --- | --- |
| human TRPC6 channel, full length, tags cleaved, in MSP2N2 lipid nanodiscs (natural protein, UniProt Q9Y210 1-931, looked up) MSQSPAFGPRRGSSPRGAAGAAARRNESQDYLLMDSELGEDGCPQAPLPCYGYYPCFRGSDNRLAHRRQTVLREKGRRLANRGPAYMFSDRSTSLSIEEERFLDAAEYGNIPVVRKMLEECHSLNVNCVDYMGQNALQLAVANEHLEITELLLKKENLSRVGDALLLAISKGYVRIVEAILSHPAFAEGKRLATSPSQSELQQDDFYAYDEDGTRFSHDVTPIILAAHCQEYEIVHTLLRKGARIERPHDYFCKCNDCNQKQKHDSFSHSRSRINAYKGLASPAYLSLSSEDPVMTALELSNELAVLANIEKEFKNDYKKLSMQCKDFVVGLLDLCRNTEEVEAILNGDVETLQSGDHGRPNLSRLKLAIKYEVKKFVAHPNCQQQLLSIWYENLSGLRQQTMAVKFLVVLAVAIGLPFLALIYWFAPCSKMGKIMRGPFMKFVAHAASFTIFLGLLVMNAADRFEGTKLLPNETSTDNAKQLFRMKTSCFSWMEMLIISWVIGMIWAECKEIWTQGPKEYLFELWNMLDFGMLAIFAASFIARFMAFWHASKAQSIIDANDTLKDLTKVTLGDNVKYYNLARIKWDPSDPQIISEGLYAIAVVLSFSRIAYILPANESFGPLQISLGRTVKDIFKFMVIFIMVFVAFMIGMFNLYSYYIGAKQNEAFTTVEESFKTLFWAIFGLSEVKSVVINYNHKFIENIGYVLYGVYNVTMVIVLLNMLIAMINSSFQEIEDDADVEWKFARAKLWFSYFEEGRTLPVPFNLVPSPKSLFYLLLKLKKWISELFQGHKKGFQEDAEMNKINEEKKLGILGSHEDLSKLSLDKKQVGHNKQPSIRSSEDFHLNSFNNPPRQYQKIMKRLIKRYVLQAQIDKESDEVNEGELKEIKQDISSLRYELLEEKSQNTEDLAELIRELGEKLSMEPNQEETNR | 4 |  |
| N-terminal GFP-tagged hTRPC6 (natural protein, human, UniProt Q9Y210 1-931, looked up) MSQSPAFGPRRGSSPRGAAGAAARRNESQDYLLMDSELGEDGCPQAPLPCYGYYPCFRGSDNRLAHRRQTVLREKGRRLANRGPAYMFSDRSTSLSIEEERFLDAAEYGNIPVVRKMLEECHSLNVNCVDYMGQNALQLAVANEHLEITELLLKKENLSRVGDALLLAISKGYVRIVEAILSHPAFAEGKRLATSPSQSELQQDDFYAYDEDGTRFSHDVTPIILAAHCQEYEIVHTLLRKGARIERPHDYFCKCNDCNQKQKHDSFSHSRSRINAYKGLASPAYLSLSSEDPVMTALELSNELAVLANIEKEFKNDYKKLSMQCKDFVVGLLDLCRNTEEVEAILNGDVETLQSGDHGRPNLSRLKLAIKYEVKKFVAHPNCQQQLLSIWYENLSGLRQQTMAVKFLVVLAVAIGLPFLALIYWFAPCSKMGKIMRGPFMKFVAHAASFTIFLGLLVMNAADRFEGTKLLPNETSTDNAKQLFRMKTSCFSWMEMLIISWVIGMIWAECKEIWTQGPKEYLFELWNMLDFGMLAIFAASFIARFMAFWHASKAQSIIDANDTLKDLTKVTLGDNVKYYNLARIKWDPSDPQIISEGLYAIAVVLSFSRIAYILPANESFGPLQISLGRTVKDIFKFMVIFIMVFVAFMIGMFNLYSYYIGAKQNEAFTTVEESFKTLFWAIFGLSEVKSVVINYNHKFIENIGYVLYGVYNVTMVIVLLNMLIAMINSSFQEIEDDADVEWKFARAKLWFSYFEEGRTLPVPFNLVPSPKSLFYLLLKLKKWISELFQGHKKGFQEDAEMNKINEEKKLGILGSHEDLSKLSLDKKQVGHNKQPSIRSSEDFHLNSFNNPPRQYQKIMKRLIKRYVLQAQIDKESDEVNEGELKEIKQDISSLRYELLEEKSQNTEDLAELIRELGEKLSMEPNQEETNR |  | 4 |

Reference: article doi:10.1101/282814 (bioRxiv, 2018)
